T1: UbP_C Q219A/I221A (human, UniProt Q8WUN7 129-234, Q219A | I221A)
T1 sequence: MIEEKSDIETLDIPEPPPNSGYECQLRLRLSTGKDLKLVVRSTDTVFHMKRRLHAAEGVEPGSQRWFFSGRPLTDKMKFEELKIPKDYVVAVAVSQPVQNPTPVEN

T2: UbP_C F195A (human, UniProt Q8WUN7 129-234, F195A)
T2 sequence: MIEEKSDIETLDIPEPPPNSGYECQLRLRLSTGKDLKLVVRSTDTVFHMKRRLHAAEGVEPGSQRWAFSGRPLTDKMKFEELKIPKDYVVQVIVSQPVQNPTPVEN

B1: USP5_UBA1 (first UBA domain of USP5, residues 631-692) (domain or fragment)
chain: MLDESVIIQLVEMGFPMDACRKAVYYTGNSGAEAAMNWVMSHMDDPDFANPLILPGSSGPGS
B2: UbP_C (C-terminal part of DC-UbP, residues 129-234), His-tagged (domain or fragment)
chain: MIEEKSDIETLDIPEPPPNSGYECQLRLRLSTGKDLKLVVRSTDTVFHMKRRLHAAEGVEPGSQRWFFSGRPLTDKMKFEELKIPKDYVVQVIVSQPVQNPTPVEN

Assays:
Test in all cases: NMR
UbP_C Q219A/I221A = biological target: T1, UbP_C Q219A/I221A
UbP_C F195A = biological target: T2, UbP_C F195A
[1] = biological target: B1

Row | Binder | Kd (UbP_C Q219A/I221A) [µM] | Kd (UbP_C F195A) [µM] | Kd [1] [µM]
1 | B1 | 770 | > 3000 | –
2 | B2 | – | – | 800

Reference: PMC4160250 (2014)
